Reference: patent US20180346564A1 (TEIJIN PHARMA, published 2018)
[ ]: non-standard residue; d: D form. pT = C[C@@H](OP(=O)(O)O)[C@H](N)C(=O)O; pS = N[C@@H](COP(=O)(O)O)C(=O)O

T1: Peptide No. 1, pS46, H-GLKE(pS)PLQT-OH (human, SMILES CC(C)C[C@H](NC(=O)CN)C(=O)N[C@@H](CCCCN)C(=O)N[C@@H](CCC(=O)O)C(=O)N[C@@H](COP(=O)(O)O)C(=O)N1CCC[C@H]1C(=O)N[C@@H](CC(C)C)C(=O)N[C@@H](CCC(N)=O)C(=O)N[C@H](C(=O)O)[C@@H](C)O)
T1 peptide: H-GLKE[pS]PLQT-OH

T2: Peptide No. 6, pT231, H-KVAVVR(pT)PPKSPS-OH (human)
T2 peptide: H-KVAVVR[pT]PPKSPS-OH

T3: Peptide No. 2, pS199, H-SGYS(pS)PGSPGC-OH (human, SMILES N[C@@H](CO)C(=O)NCC(=O)N[C@@H](Cc1ccc(O)cc1)C(=O)N[C@@H](CO)C(=O)N[C@@H](COP(=O)(O)O)C(=O)N1CCC[C@H]1C(=O)NCC(=O)N[C@@H](CO)C(=O)N1CCC[C@H]1C(=O)NCC(=O)N[C@@H](CS)C(=O)O)
T3 peptide: H-SGYS[pS]PGSPGC-OH

T4: Peptide No. 5, pT217, H-GC-GSRSRTPSLP(pT)PPTREPKKVAVV-OH (human, phosphothreonine (pT) at peptide position 13 (tau Thr217))
T4 peptide: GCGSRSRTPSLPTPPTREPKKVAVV

T5: Peptide No. 3, pS202, H-SSPG(pS)PGTPC-OH (human, SMILES C[C@@H](O)[C@H](NC(=O)CNC(=O)[C@@H]1CCCN1C(=O)[C@H](COP(=O)(O)O)NC(=O)CNC(=O)[C@@H]1CCCN1C(=O)[C@H](CO)NC(=O)[C@@H](N)CO)C(=O)N1CCC[C@H]1C(=O)N[C@@H](CS)C(=O)O)
T5 peptide: H-SSPG[pS]PGTPC-OH

T6: Peptide No. 7, pS396/pS400/pS404, H-GC-RENAKAKTDHGAEIVYK(pS)PVV(pS)GDT(pS)PRHL-OH (human, phosphoserine (pS) at peptide positions 20, 24 and 28 (tau Ser396, Ser400, Ser404))
T6 peptide: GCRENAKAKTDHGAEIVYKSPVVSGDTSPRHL

T7: Peptide No. 4, pT212/pS214, H-GCGSPGTPGSRSR(pT)P(pS)LPTPPTREPK-OH (human, phosphothreonine (pT) at peptide position 14 (tau Thr212); phosphoserine (pS) at peptide position 16 (tau Ser214))
T7 peptide: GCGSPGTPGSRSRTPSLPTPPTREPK

T8: Peptide No. 8, pS412, H-NV(pS)STGSC-OH (human, SMILES CC(C)[C@H](NC(=O)[C@@H](N)CC(N)=O)C(=O)N[C@@H](COP(=O)(O)O)C(=O)N[C@@H](CO)C(=O)N[C@H](C(=O)NCC(=O)N[C@@H](CO)C(=O)N[C@@H](CS)C(=O)O)[C@@H](C)O)
T8 peptide: H-NV[pS]STGSC-OH


Legend:
[1] = target: T9, His-tagged non-phosphorylated tau protein 4R0N (human, UniProt P10636 2-758); assay: SPR Biacore T200, antigen immobilized
T9 construct: Produced by Escherichia coli; negative control in SPR; also called ATGen Cat. No. ATGP0795
T9 sequence (P10636 other isoform, or with tags, fused parts or gaps limits assumed): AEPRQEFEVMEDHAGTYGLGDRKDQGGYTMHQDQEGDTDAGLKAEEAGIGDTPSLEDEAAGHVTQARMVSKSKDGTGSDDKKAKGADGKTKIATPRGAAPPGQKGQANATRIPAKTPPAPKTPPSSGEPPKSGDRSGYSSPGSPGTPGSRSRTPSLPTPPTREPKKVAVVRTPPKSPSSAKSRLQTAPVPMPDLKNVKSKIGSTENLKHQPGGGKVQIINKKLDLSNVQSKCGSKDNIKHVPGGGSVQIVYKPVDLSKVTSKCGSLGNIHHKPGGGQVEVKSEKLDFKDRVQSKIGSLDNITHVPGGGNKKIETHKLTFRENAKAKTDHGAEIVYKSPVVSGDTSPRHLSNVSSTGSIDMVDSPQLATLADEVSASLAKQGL
Description: The binding affinities of the hyperphosphorylated tau protein 4R2N (hpTau), non-phosphorylated tau protein 4R0N, monophosphorylated tau peptide 1×P, triphosphorylated tau peptide 3×P, and non-phosphorylated tau peptide Non P with each antibody were measured with an SPR system Biacore T200 (GE Healthcare Japan), in accordance with the instruction manual for evaluation attached to the system.
The His-tagged hpTau or Tau proteins were each immobilized on a sensor chip using an HBS-N buffer (code No. BR-1003-69) as the immobilization reaction solution and allowing a nickel chloride solution to react with the NTA sensor chip for bonding Ni to NTA. Subsequently, the sensor chip was activated with a mixed solution of N-ethyl-N′-(3-dimethylaminopropyl)-carbodiimide hydrochloride (1-ethyl-3-(3-dimethylaminopropyl)carbodiimide hydrochloride: EDC) and N-hydroxysuccinimide (NHS). A solution of each of the His-tagged proteins, adjusted to a concentration of 100 to 500 ng/mL with a 4-(2-hydroxyethyl)-1-piperazineethanesulfonic acid (HEPES) buffer (0.01 M HEPES, 150 mM KCl, 2 mM DTT, 1 mM EDTA, pH 7.2), was applied to the sensor chip, whereby the protein was immobilized on the sensor chip through covalent bonds with the Ni-NTA. The remaining active NHS was blocked with ethanolamine, and Ni ions were removed with an EDTA solution (Ni-affinity amine coupling: see International Publication No. WO2005/022156). The antigen peptides (1×P, 3×P, and Non P) were each immobilized on a sensor chip by activating the NTA sensor chip with a mixed solution of N-ethyl-N′-(3-dimethylaminopropyl)-carbodiimide (EDC) hydrochloride and N-hydroxysuccinimide (NHS), and then applying a solution of the antigen peptide diluted with a 10 mM sodium acetate buffer (pH: 4 to 4.5) to 1 to 10 μM to the sensor chip, whereby the peptide was covalently bound to the sensor chip. The remaining active NHS was blocked with ethanolamine. Thus, sensor chips immobilized respectively with the proteins and peptides mentioned above were produced.
A CAPS buffer (pH 10.5) was applied to these sensor chips at 37° C. to stabilize the protein- or peptide-immobilized surfaces of the sensor chips.

[2] = target: T1, Peptide No. 1, pS46, H-GLKE(pS)PLQT-OH; assay: ELISA, coated peptide
In short: (§1)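 Peptides, or their bovine serum albumin or keyhole limpet hemocyanin conjugates, at 1 μg/mL in cold PBS were coated at 50 μL/well overnight at 4 °C, then blocked with 3% BSA-PBS overnight at 4 °C. Purified antibody at 150 ng/mL in 3% BSA-PBS was bound for 90 minutes at room temperature, followed by alkaline phosphatase-labelled goat anti-human IgG (H+L) (2000-fold, 60 minutes). Binding was read as absorbance at 405 nm (reference 550 nm) after 40 minutes of pNPP development.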

[3] = target: T2, Peptide No. 6, pT231, …; assay: ELISA, coated peptide
In short: as §1

[4] = target: T3, Peptide No. 2, pS199, …; assay: ELISA, coated peptide
In short: as §1

[5] = target: T4, Peptide No. 5, pT217, …; assay: ELISA, coated peptide
In short: as §1

[6] = target: T5, Peptide No. 3, pS202, H-SSPG(pS)PGTPC-OH; assay: ELISA, coated peptide
In short: as §1

[7] = target: T6, Peptide No. 7, pS396/pS400/pS404, …; assay: ELISA, coated peptide
In short: as §1

[8] = target: T7, Peptide No. 4, pT212/pS214, …; assay: ELISA, coated peptide
In short: as §1

[9] = target: T8, Peptide No. 8, pS412, H-NV(pS)STGSC-OH; assay: ELISA, coated peptide
In short: as §1

Binder | binding result [1] | binding result [2] | binding result [3] | binding result [4] | binding result [5] | binding result [6] | binding result [7] | binding result [8] | binding result [9]
humanized antibody L46H11 (antibody, human IgG1, kappa) heavy: not shown light: DIVMTQSPLSLPVTLGEPASISCRSSQSIVHSNGNTYLEWYLQKPGQSPQLLIYTVSNRFSGVPDRFSGSGSGTDFTLKISRVEAEDLGVYYCFQGSHLPLTFGGGTKVEIKRTVAAPSVFIFPPSDEQLKSGTASVVCLLNNFYPREAKVQWKVDNALQSGNSQESVTEQDSKDSTYSLSSTLTLSKADYEKHKVYACEVTHQGLSSPVTKSFNRGEC | no binding (tested: 0.2 to 1 nM) | no binding (tested: OD value <0.5; antibody 150 ng/mL) | no binding (tested: OD value <0.5; antibody 150 ng/mL) | no binding (tested: OD value <0.5; antibody 150 ng/mL) | no binding (tested: OD value <0.5; antibody 150 ng/mL) | no binding (tested: OD value <0.5; antibody 150 ng/mL) | no binding (tested: OD value <0.5; antibody 150 ng/mL) | no binding (tested: OD value <0.5; antibody 150 ng/mL) | no binding (tested: OD value <0.5; antibody 150 ng/mL)
humanized antibody L48H47 (antibody, human IgG1, kappa, V domains shown, VL48/VH47, human IgG1/kappa) VH: EVQLVESGGGLVQPGGSLRLSCAASGFAFNSFALNWVRQAPGKGLEWVGHIRSKTNNYATFYAASVKDRFTVSRDDSQNTAYLQMNSLKTEDTATYYCVRRGPRDSWFGYWGQGTLVTVSS VL: DIVMTQSPLSLPVTLGDPASISCRSSQNIVHSNGNTYLEWYQQKPGQSPQLLIYTVSNRFSGVPDRFSGSGSGTDFTLKISRVEAEDLGVYYCFQGSHLPLTFGGGTKVEIKR | no binding (tested: 0.2 to 1 nM) | no binding (tested: OD value <0.5; antibody 150 ng/mL) | no binding (tested: OD value <0.5; antibody 150 ng/mL) | no binding (tested: OD value <0.5; antibody 150 ng/mL) | no binding (tested: OD value <0.5; antibody 150 ng/mL) | no binding (tested: OD value <0.5; antibody 150 ng/mL) | no binding (tested: OD value <0.5; antibody 150 ng/mL) | no binding (tested: OD value <0.5; antibody 150 ng/mL) | no binding (tested: OD value <0.5; antibody 150 ng/mL)
humanized antibody L47H11 (antibody, human IgG1, kappa, V domains shown, VL47/VH11, human IgG1/kappa) VH: EVQLVESGGGLVQPGGSLRLSCAASGFTFSSFALNWVRQAPGKGLEWVGHIRSKTNNYATFYAASVKDRFTVSRDDSQNTAYLQMNSLKTEDTATYYCVRRGPRDSWFGYWGQGTLVTVSS VL: DIVMTQSPLSLPVTLGDPASISCRSSQSIVHSNGNTYLEWYQQKPGQSPQRLIYTVSNRFSGVPDRFSGSGSGTDFTLKISRVEAEDLGVYYCFQGSHLPLTFGGGTKVEIKR | no binding (tested: 0.2 to 1 nM) | no binding (tested: OD value <0.5; antibody 150 ng/mL) | no binding (tested: OD value <0.5; antibody 150 ng/mL) | no binding (tested: OD value <0.5; antibody 150 ng/mL) | no binding (tested: OD value <0.5; antibody 150 ng/mL) | no binding (tested: OD value <0.5; antibody 150 ng/mL) | no binding (tested: OD value <0.5; antibody 150 ng/mL) | no binding (tested: OD value <0.5; antibody 150 ng/mL) | no binding (tested: OD value <0.5; antibody 150 ng/mL)
humanized antibody L47H65 (antibody, human IgG1, kappa, V domains shown) VH: EVQLVESGGGLVQPGGSLRLSCAASGFAFNSFALNWVRQAPGKGLEWVVHIRSKTNNYATFYAASVKDRFTVSRDDSQNTAYLQMNSLKTEDTATYYCVRRGPRDSWFGYWGQGTLVTVSS VL: DIVMTQSPLSLPVTLGDPASISCRSSQSIVHSNGNTYLEWYQQKPGQSPQRLIYTVSNRFSGVPDRFSGSGSGTDFTLKISRVEAEDLGVYYCFQGSHLPLTFGGGTKVEIKR | no binding (tested: 0.2 to 1 nM) | no binding (tested: OD value <0.5; antibody 150 ng/mL) | no binding (tested: OD value <0.5; antibody 150 ng/mL) | no binding (tested: OD value <0.5; antibody 150 ng/mL) | no binding (tested: OD value <0.5; antibody 150 ng/mL) | no binding (tested: OD value <0.5; antibody 150 ng/mL) | no binding (tested: OD value <0.5; antibody 150 ng/mL) | no binding (tested: OD value <0.5; antibody 150 ng/mL) | no binding (tested: OD value <0.5; antibody 150 ng/mL)
humanized antibody L48H12 (antibody, human IgG1, kappa, V domains shown, VL48/VH12, human IgG1/kappa) VH: EVQLVESGGGLVQPGGSLRLSCAASGFAFNSFALNWVRQAPGKGLEWVGHIRSKTNNYATFYADSVKDRFTVSRDDSKNTAYLQMNSLKTEDTATYYCVRRGPRDSWFGYWGQGTLVTVSS VL: DIVMTQSPLSLPVTLGDPASISCRSSQNIVHSNGNTYLEWYQQKPGQSPQLLIYTVSNRFSGVPDRFSGSGSGTDFTLKISRVEAEDLGVYYCFQGSHLPLTFGGGTKVEIKR | no binding (tested: 0.2 to 1 nM) | no binding (tested: OD value <0.5; antibody 150 ng/mL) | no binding (tested: OD value <0.5; antibody 150 ng/mL) | no binding (tested: OD value <0.5; antibody 150 ng/mL) | no binding (tested: OD value <0.5; antibody 150 ng/mL) | no binding (tested: OD value <0.5; antibody 150 ng/mL) | no binding (tested: OD value <0.5; antibody 150 ng/mL) | no binding (tested: OD value <0.5; antibody 150 ng/mL) | no binding (tested: OD value <0.5; antibody 150 ng/mL)
